{"source": "paper PMC8036708", "key": {"[1]": {"target": "adenovirus terminal protein-thioredoxin fusion protein (TP–Trx), bacterially expressed (adenovirus (serotype not given))", "test": "AlphaScreen or HTRF; 30 nM TP–Trx (or Trx tag alone) on nickel NTA donor beads, serial dilutions of GST-tagged importins or GST control on GST acceptor beads; 0.5% BSA added, dilutions in PBS, room temperature in the dark; one-phase association fit"}, "[2]": {"target": "adenovirus terminal protein-thioredoxin fusion protein (TP–Trx), bacterially expressed (adenovirus (serotype not given))"}}, "data": [{"substance": "importin β1 (Imp β1), GST-tagged (from UniProt P70168 1-876) (natural protein)", "values": [{"measurement": "Kd", "setting": "[1]", "result": 21, "unit": "nM"}, {"measurement": "Nf/Cf of TP–Trx–AF594 microinjected into HeLa cells incubated with importazole (40 µM), a selective Imp β inhibitor; 1.62 with DMSO", "setting": "[2]", "result": 1.04}]}]}
